In doi:10.1101/2021.12.07.471543:

Molecular target: C4BPα1-2, a fragment of human C4b-binding protein (C4BP) (human)
Experiment: ITC

Row | Substance | Kd
1 | Intact M2 protein (mature form), Streptococcus pyogenes strain AP2 (natural protein) | 4 µM
2 | M2G (M2_(53)G), M2 aa 53-86 fused at its C-terminus to a GCN4 coiled-coil sequence | 4 µM
